Data as given in PMC7655802, “Antibiotic-induced DNA damage results in a controlled loss of pH homeostasis and genome instability”.

B1: 90mer oligonucleotide (ssDNA)
DNA: AAATCAATCTAAAGTATATATGAGTAAACTTGGTCTGACAGTTACCAATGCTTAATCAGTGAGGCACCTATCTCAGCGATCTGTCTATTT
B2: dT79 (ssDNA)
DNA: TTTTTTTTTTTTTTTTTTTTTTTTTTTTTTTTTTTTTTTTTTTTTTTTTTTTTTTTTTTTTTTTTTTTTTTTTTTTTTT

Assays:
RecA [1] = target: T1, RecA (UniProt P0A7G6 2-353); experiment: EMSA (glutaraldehyde-fixed); pH 5; 1 mM ATP, 10 mM Mg2+; EMSA: 50 mM phosphate/citrate pH 5-8, 50 mM NaCl, 10 mM MgCl2, 1 mM ATP, 25 C, 5 min, then 0.125% glutaraldehyde; stopped-flow: 20 nM dT79, 1 mM ATP, 10 mM MgCl2; conditions: protein: commercial; label: 5'-FITC; single strand
T1 sequence (P0A7G6 2-353): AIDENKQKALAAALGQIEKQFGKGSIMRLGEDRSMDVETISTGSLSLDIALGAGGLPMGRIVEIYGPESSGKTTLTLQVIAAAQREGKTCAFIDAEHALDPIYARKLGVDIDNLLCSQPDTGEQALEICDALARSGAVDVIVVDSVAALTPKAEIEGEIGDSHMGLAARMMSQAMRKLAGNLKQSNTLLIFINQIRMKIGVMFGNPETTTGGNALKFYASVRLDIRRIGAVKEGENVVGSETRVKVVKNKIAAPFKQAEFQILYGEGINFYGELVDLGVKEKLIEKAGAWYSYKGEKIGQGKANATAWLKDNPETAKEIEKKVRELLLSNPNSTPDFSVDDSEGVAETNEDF

RecA [2] = target: T1, RecA; experiment: stopped-flow fluorescence; pH 5; 1 mM ATP, 10 mM Mg2+; binds in less than 1 s; EMSA: 50 mM phosphate/citrate pH 5-8, 50 mM NaCl, 10 mM MgCl2, 1 mM ATP, 25 C, 5 min, then 0.125% glutaraldehyde; stopped-flow: 20 nM dT79, 1 mM ATP, 10 mM MgCl2; conditions: protein: commercial; label: 5'-Cy3; single strand

Binder | binding signal (RecA [1]) | binding result (RecA [2])
B1 | ~10 fold higher affinity at pH 5 than at pH 8 | –
B2 | – | binds
